Values quoted from earlier work in PMC3433420.
Read-outs that look alike come from different tables or passages of the source.

Tests used:
Settings in all cases: cited from earlier work
[1] = target: SHC2-PTB (Homo sapiens) (UniProt P98077)
[2] = target: VAV3 (Homo sapiens) (UniProt Q9UKW4)
[3] = target: GRB7 (Homo sapiens) (UniProt Q14451)
[4] = target: SOCS6 (Homo sapiens) (UniProt O14544)
[5] = target: SOCS1 (Homo sapiens) (UniProt O15524)
[6] = target: VAV2 (Homo sapiens) (UniProt P52735)
[7] = target: PTPN11-N (Homo sapiens) (UniProt Q06124)
[8] = target: TNS3 (Homo sapiens) (UniProt Q68CZ2)
Chain of TNS3 (Homo sapiens) (Q68CZ2 1167-1287): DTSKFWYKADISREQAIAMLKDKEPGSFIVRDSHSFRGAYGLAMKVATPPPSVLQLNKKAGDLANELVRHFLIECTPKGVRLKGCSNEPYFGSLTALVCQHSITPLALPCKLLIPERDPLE

[9] = target: SHC1 (Homo sapiens) (UniProt P29353)
Chain of SHC1 (Homo sapiens) (P29353 483-583): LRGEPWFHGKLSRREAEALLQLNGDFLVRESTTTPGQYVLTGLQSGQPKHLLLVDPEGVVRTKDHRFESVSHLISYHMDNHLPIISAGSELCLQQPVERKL

[10] = target: TENC1 (Homo sapiens) (UniProt Q63HR2)
Chain of TENC1 (Homo sapiens) (Q63HR2 1135-1252): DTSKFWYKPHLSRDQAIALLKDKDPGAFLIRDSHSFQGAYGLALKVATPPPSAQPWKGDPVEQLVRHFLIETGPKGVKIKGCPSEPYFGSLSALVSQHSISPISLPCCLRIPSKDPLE

[11] = target: SH2B2 (Homo sapiens) (UniProt O14492)
Chain of SH2B2 (Homo sapiens) (O14492 412-520): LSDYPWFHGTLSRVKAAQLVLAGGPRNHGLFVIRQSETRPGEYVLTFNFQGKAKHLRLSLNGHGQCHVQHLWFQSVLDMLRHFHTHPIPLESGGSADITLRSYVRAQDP

[12] = target: PLCG1-NC (Homo sapiens) (UniProt P19174)
Chain of PLCG1-NC (Homo sapiens) (P19174 545-761): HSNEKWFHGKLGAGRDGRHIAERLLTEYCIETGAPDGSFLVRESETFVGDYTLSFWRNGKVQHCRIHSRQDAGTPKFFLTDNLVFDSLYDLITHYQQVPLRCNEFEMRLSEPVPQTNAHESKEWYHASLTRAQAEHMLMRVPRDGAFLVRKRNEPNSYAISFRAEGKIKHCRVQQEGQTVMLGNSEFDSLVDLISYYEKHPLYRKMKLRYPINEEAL

[13] = target: SLA (Homo sapiens) (UniProt Q13239)
Chain of SLA (Homo sapiens) (Q13239 79-180): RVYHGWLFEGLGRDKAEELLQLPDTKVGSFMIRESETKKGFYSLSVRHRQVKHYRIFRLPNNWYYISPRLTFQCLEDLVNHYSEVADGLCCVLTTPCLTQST

[14] = target: HSH2D (Homo sapiens) (UniProt Q96JZ2)
Chain of HSH2D (Homo sapiens) (Q96JZ2 29-130): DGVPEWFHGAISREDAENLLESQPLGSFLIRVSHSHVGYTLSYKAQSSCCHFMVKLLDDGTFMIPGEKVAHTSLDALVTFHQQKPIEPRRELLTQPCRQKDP

[15] = target: FGR (Homo sapiens) (UniProt P09769)
[16] = target: PIK3R1-NC (Homo sapiens) (UniProt P27986)
Chain of PIK3R1-NC (Homo sapiens) (P27986 328-723): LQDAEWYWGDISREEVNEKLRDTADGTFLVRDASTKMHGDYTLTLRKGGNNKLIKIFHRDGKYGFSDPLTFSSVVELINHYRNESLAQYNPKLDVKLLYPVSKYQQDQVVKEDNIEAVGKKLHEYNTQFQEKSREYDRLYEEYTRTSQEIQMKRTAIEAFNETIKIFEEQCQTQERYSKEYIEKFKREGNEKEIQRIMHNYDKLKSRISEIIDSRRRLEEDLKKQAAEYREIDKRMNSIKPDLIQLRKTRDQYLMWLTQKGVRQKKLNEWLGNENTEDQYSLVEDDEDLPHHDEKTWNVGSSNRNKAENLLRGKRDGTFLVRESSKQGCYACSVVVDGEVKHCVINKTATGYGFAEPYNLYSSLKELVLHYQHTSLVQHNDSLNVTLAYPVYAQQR

[17] = target: SLA2 (Homo sapiens) (UniProt Q9H6Q3)
Chain of SLA2 (Homo sapiens) (Q9H6Q3 89-196): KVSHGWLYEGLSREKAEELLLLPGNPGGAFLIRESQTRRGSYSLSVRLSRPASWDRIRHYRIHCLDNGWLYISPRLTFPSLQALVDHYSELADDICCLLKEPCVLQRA

[18] = target: VAV1 (Homo sapiens) (UniProt P15498)
Chain of VAV1 (Homo sapiens) (P15498 666-770): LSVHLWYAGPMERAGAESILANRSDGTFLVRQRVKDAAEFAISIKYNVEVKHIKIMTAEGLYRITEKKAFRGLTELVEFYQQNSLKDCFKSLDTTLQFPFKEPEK

[19] = target: PLCG1-C (Homo sapiens) (UniProt P19174)
Chain of PLCG1-C (Homo sapiens) (P19174 545-761): as the sequence (P19174 545-761) above

[20] = target: VAV2 (Homo sapiens) (UniProt P52735); remark: listed apart in the source
[21] = target: VAV3 (Homo sapiens) (UniProt Q9UKW4); remark: listed apart in the source
[22] = target: RASA1-N (Homo sapiens) (UniProt P20936)
Chain of RASA1-N (Homo sapiens) (P20936 176-446): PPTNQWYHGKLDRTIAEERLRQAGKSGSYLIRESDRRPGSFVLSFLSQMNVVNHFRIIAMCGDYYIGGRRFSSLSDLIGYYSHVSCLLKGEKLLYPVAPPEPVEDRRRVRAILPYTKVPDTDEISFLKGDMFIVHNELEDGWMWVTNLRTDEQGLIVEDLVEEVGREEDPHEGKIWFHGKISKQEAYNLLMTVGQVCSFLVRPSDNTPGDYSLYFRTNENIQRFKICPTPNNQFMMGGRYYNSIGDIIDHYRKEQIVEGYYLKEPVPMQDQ

[23] = target: PIK3R1-NC (Homo sapiens) (UniProt P27986); remark: listed apart in the source
[24] = target: PIK3R2-NC (Homo sapiens) (UniProt O00459)
Chain of PIK3R2-NC (Homo sapiens) (O00459 325-721): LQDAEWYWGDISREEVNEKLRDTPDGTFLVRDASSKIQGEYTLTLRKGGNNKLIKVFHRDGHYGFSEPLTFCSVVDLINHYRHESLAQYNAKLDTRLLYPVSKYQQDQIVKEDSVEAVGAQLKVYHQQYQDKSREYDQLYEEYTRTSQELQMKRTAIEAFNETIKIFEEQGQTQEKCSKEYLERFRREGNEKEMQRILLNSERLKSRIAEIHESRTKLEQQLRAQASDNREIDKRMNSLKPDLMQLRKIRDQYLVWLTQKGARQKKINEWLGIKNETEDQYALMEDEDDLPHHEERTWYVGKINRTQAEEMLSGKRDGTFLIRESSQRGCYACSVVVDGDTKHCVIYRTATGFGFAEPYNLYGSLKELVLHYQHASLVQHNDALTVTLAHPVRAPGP

[25] = target: TEC (Homo sapiens) (UniProt P42680)
Chain of TEC (Homo sapiens) (P42680 242-350): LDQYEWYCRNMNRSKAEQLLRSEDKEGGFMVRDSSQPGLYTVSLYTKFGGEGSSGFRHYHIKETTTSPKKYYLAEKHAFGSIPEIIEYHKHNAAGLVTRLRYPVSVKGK

[26] = target: RASA1-NC (Homo sapiens) (UniProt P20936)
Chain of RASA1-NC (Homo sapiens) (P20936 176-446): as the sequence (P20936 176-446) above

[27] = target: SUPT6H (Homo sapiens) (UniProt Q7KZ85)
Chain of SUPT6H (Homo sapiens) (Q7KZ85 1320-1436): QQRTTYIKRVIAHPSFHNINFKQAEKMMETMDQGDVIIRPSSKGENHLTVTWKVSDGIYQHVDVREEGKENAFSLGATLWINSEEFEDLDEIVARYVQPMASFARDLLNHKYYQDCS

[28] = target: RASA1-NC (Homo sapiens) (UniProt P20936); remark: listed apart in the source
[29] = target: ITK (Homo sapiens) (UniProt Q08881)
Chain of ITK (Homo sapiens) (Q08881 234-343): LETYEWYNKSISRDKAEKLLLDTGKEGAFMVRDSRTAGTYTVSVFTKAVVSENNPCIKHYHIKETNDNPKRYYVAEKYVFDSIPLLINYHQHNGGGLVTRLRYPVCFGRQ

[30] = target: PIK3R1-C (Homo sapiens) (UniProt P27986)
Chain of PIK3R1-C (Homo sapiens) (P27986 328-723): as the sequence (P27986 328-723) above

Chain of VAV3 (Homo sapiens) (Q9UKW4 667-771): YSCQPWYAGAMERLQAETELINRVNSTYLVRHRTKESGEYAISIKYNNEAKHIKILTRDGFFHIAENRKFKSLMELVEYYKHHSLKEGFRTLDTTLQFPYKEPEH
Chain of VAV2 (Homo sapiens) (P52735 668-772): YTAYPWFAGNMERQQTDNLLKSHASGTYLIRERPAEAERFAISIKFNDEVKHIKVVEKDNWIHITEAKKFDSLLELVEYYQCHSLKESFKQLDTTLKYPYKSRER
Chain of SOCS1 (Homo sapiens) (O15524 74-179): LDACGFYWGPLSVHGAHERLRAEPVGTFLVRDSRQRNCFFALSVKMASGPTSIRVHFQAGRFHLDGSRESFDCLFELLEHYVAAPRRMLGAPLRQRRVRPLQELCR
Chain of SHC2-PTB (Homo sapiens) (P98077 482-582): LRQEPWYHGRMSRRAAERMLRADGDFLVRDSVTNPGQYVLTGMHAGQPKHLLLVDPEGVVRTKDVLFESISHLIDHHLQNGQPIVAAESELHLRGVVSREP
Chain of GRB7 (Homo sapiens) (Q14451 426-532): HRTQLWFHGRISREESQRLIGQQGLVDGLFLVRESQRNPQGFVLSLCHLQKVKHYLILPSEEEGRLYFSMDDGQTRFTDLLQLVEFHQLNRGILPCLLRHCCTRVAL
Chain of SOCS6 (Homo sapiens) (O14544 379-496): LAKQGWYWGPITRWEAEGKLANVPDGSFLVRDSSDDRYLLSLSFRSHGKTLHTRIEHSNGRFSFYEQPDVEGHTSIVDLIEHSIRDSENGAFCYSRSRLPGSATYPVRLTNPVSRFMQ

…pYWDQDPPE
apparent Kd (screen) [1]: 457 nM | apparent Kd (screen) [2]: 2000 nM | apparent Kd (screen) [3]: 253 nM | apparent Kd (screen) [4]: 2000 nM | apparent Kd (screen) [5]: 1920 nM | apparent Kd (screen) [6]: 2000 nM | apparent Kd (screen) [7]: 2000 nM | apparent Kd (screen) [8]: 1290 nM | apparent Kd (screen) [9]: 2000 nM | apparent Kd (screen) [10]: 843 nM | apparent Kd (screen) [11]: 1470 nM | apparent Kd (screen) [12]: 1780 nM | apparent Kd (screen) [13]: 2000 nM | apparent Kd (screen) [14]: 2000 nM

…pYEEMRAFQ
apparent Kd (screen) [15]: 1160 nM | apparent Kd (screen) [16]: 49 nM | apparent Kd (screen) [17]: 2000 nM | apparent Kd (screen) [18]: 499 nM

…pYLIPQQGFd
apparent Kd (screen) [19]: 2000 nM | apparent Kd (screen) [20]: 85 nM | apparent Kd (screen) [21]: 2000 nM | apparent Kd (screen) [22]: 488 nM | apparent Kd (screen) [23]: 175 nM

…pYLVPQQGF
apparent Kd (screen) [24]: 2000 nM | apparent Kd (screen) [25]: 2000 nM | apparent Kd (screen) [26]: 1770 nM | apparent Kd (screen) [27]: 912 nM | apparent Kd (screen) [28]: 2000 nM | apparent Kd (screen) [29]: 2000 nM | apparent Kd (screen) [30]: 2000 nM
